From PMC9304885

Target: recombinant M. hyopneumoniae mhp390 (rMhp390) (Mycoplasma hyopneumoniae)
Assay: BLI; ForteBio Octet Red96; biotinylated rMhp390 immobilised on streptavidin (SA) biosensors, rNOD1 in solution; PBST (PBS, 0.02% Tween20); association 300 s, dissociation 600 s; 1:1 binding model

recombinant NOD1 (rNOD1), nucleotide-binding oligomerization domain 1 (receptor)
Kd: 8.14 µM
